Data reported in IntAct's records for PubMed 31515488.

B1: Glycine N-methyltransferase (Homo sapiens), Q14749 (parent)
chain: MVDSVYRTRSLGVAAEGLPDQYADGEAARVWQLYIGDTRSRTAEYKAWLLGLLRQHGCQRVLDVACGTGVDSIMLVEEGFSVTSVDASDKMLKYALKERWNRRHEPAFDKWVIEEANWMTLDKDVPQSAEGGFDAVICLGNSFAHLPDCKGDQSEHRLALKNIASMVRAGGLLVIDHRNYDHILSTGCAPPGKNIYYKSDLTKDVTTSVLIVNNKAHMVTLDYTVQVPGAGQDGSPGLSKFRLSYYPHCLASFTELLQAAFGGKCQHSVLGDFKPYKPGQTYIPCYFIHVLKRTD
B2: Syntenin-2 (Homo sapiens), Q9H190 (parent)
chain: MSSLYPSLEDLKVDQAIQAQVRASPKMPALPVQATAISPPPVLYPNLAELENYMGLSLSSQEVQESLLQIPEGDSTAVSGPGPGQMVAPVTGYSLGVRRAEIKPGVREIHLCKDERGKTGLRLRKVDQGLFVQLVQANTPASLVGLRFGDQLLQIDGRDCAGWSSHKAHQVVKKASGDKIVVVVRDRPFQRTVTMHKDSMGHVGFVIKKGKIVSLVKGSSAARNGLLTNHYVCEVDGQNVIGLKDKKIMEILATAGNVVTLTIIPSVIYEHMVKKLPPVLLHHTMDHSIPDA
partner: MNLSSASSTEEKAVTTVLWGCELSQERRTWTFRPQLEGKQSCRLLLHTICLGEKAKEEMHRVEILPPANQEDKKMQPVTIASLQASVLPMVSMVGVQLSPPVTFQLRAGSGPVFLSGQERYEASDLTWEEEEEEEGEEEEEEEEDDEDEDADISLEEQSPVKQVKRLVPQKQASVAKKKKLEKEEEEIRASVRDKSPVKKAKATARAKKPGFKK

Variants of: B1
Conditions: with ntaq1_human NTAQ1, Q96HA8

Variant	effect of a mutation on the interaction
MVDSVYRTRSLGVAAEGLPDQYADGEAARVWQLYIGDTRSRTAEYKAWLLGLLRQHGCQRVLDVACGTGVDSIMLVEEGFSVTSVDASDKMLKYALKERWNRRHEPAFDKWVIEEANWMTLDKDVPQSAEGGFDAVICLGNSFAHLPDCKGDQSEHRLALKNIASMVRAGGLLVIDHRNYDHILSTGCAPPGKNIYYKSDLTKDVTTSVLTVNNKAHMVTLDYTVQVPGAGQDGSPGLSKFRLSYYPHCLASFTELLQAAFGGKCQHSVLGDFKPYKPGQTYIPCYFIHVLKRTD [I211T]	with no effect

Variants of: B1
Conditions: with arrc_human ARR3, P36575
arrc_human ARR3, P36575, sequence (P36575 whole entry): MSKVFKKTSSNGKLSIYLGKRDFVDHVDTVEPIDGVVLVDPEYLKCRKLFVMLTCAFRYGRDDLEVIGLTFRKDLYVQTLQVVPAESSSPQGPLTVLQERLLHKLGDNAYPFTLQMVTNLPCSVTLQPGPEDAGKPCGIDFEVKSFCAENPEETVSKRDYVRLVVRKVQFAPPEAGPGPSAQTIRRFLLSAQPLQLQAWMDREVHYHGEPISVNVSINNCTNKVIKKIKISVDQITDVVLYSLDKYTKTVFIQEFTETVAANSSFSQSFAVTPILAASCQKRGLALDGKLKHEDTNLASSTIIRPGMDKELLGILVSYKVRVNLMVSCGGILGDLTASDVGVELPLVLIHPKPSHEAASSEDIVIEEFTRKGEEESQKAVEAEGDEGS

Variant	effect of a mutation on the interaction
MVDSVYRTRSLGVAAEGLPDQYADGEAARVWQLYIGDTRSRTAEYKAWLLGLLRQHGCQRVLDVACGTGVDSIMLVEEGFSVTSVDASDKMLKYALKERWNRRHEPAFDKWVIEEANWMTLDKDVPQSAEGGFDAVICLGNSFAHLPDCKGDQSEHRLALKNIASMVRAGGLLVIDHRNYDHILSTGCAPPGKNIYYKSDLTKDVTTSVLTVNNKAHMVTLDYTVQVPGAGQDGSPGLSKFRLSYYPHCLASFTELLQAAFGGKCQHSVLGDFKPYKPGQTYIPCYFIHVLKRTD [I211T]	disrupting interaction strength

Variants of: B1
Conditions: with arrb1_human ARRB1, P49407
arrb1_human ARRB1, P49407, sequence (P49407 whole entry): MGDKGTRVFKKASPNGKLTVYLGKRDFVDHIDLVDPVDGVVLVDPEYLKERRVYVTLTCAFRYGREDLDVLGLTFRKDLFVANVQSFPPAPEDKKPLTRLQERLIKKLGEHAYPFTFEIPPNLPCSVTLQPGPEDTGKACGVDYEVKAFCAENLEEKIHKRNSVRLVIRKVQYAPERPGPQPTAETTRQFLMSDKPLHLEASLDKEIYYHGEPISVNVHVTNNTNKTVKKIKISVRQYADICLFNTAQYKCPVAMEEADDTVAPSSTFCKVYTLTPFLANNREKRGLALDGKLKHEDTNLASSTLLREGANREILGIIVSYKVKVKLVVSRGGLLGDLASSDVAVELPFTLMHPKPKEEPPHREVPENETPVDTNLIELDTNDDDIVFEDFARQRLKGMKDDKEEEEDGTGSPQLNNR

Variant	effect of a mutation on the interaction
MVDSVYRTRSLGVAAEGLPDQYADGEAARVWQLYIGDTRSRTAEYKAWLLGLLRQHGCQRVLDVACGTGVDSIMLVEEGFSVTSVDASDKMLKYALKERWNRRHEPAFDKWVIEEANWMTLDKDVPQSAEGGFDAVICLGNSFAHLPDCKGDQSEHRLALKNIASMVRAGGLLVIDHRNYDHILSTGCAPPGKNIYYKSDLTKDVTTSVLTVNNKAHMVTLDYTVQVPGAGQDGSPGLSKFRLSYYPHCLASFTELLQAAFGGKCQHSVLGDFKPYKPGQTYIPCYFIHVLKRTD [I211T]	disrupting interaction strength

Variants of: B2
Conditions: with npm2_human NPM2, Q86SE8

Variant	effect of a mutation on the interaction
MSSLYPSLEDLKVDQAIQAQVRASPKMPALPVQATAISPPPVLYPNLAELENYMGLSLSSQEVQESLLQIPEGDSTAVSGPGPGQMVAPVTGYSLGVRRAEIKPGVREIHLCKDERGKTGLRLRKVDQGLFVQLVQANTPASLVGLRFGDQLLQIDGRDCAGWSSHKAHQVVKKASGDKIVMVVRDRPFQRTVTMHKDSMGHVGFVIKKGKIVSLVKGSSAARNGLLTNHYVCEVDGQNVIGLKDKKIMEILATAGNVVTLTIIPSVIYEHMVKKLPPVLLHHTMDHSIPDA [V182M]	with no effect
MSSLYPSLEDLKVDQAIQAQVRASPKMPALPVQATAISPPPVLYPNLAELENYMGLSLSSQEVQESLLQIPEGDSTAVSGPGPGQMVAPVTGYSLGVRRAEIKPGVREIHLCKDERGKTGLRLRKVDQGLFVQLVQANTPASLVGLRFGDQLLQIDGRDCAGWSSHKAHQVVKKASGDKIVVVVRDRPFQRTVTMHKDSMGHVGFVIKKGKIVSLVKGSSAARNGLLTNHYVCEVDGQNVIRLKDKKIMEILATAGNVVTLTIIPSVIYEHMVKKLPPVLLHHTMDHSIPDA [G242R]	disrupting interaction strength
MSSLYPSLEDLKVDQAIQAQVRASPKMPALPVQATAISPPPVLYPNLAELENYMGLSLSSQEVQESLLQIPEGDSTAVSGPGPGQMVAPVTGYSLGVRRAEIKPGVREIHLCKDERGKTGLRLRKVDQGLFVQLVQANTPASLVGLRFGDQLLQIDGRDCAGWSSHKAHQVVKKASGDKIVVVVRDRPFQRTVTMHKDSMGHVGFVIKKGKIVSLVKGSSAARNRLLTNHYVCEVDGQNVIGLKDKKIMEILATAGNVVTLTIIPSVIYEHMVKKLPPVLLHHTMDHSIPDA [G225R]	disrupting interaction strength
